Changes are numbered by the printed parent chain. Values belong to the binder of their own block, whether it stands above or below them. Square brackets hold non-standard residues; d marks the D form. GABA = NCCCC(=O)O
Assays:
Test in all cases: library pulldown, LC-MS of supernatant; ratio vs GFP-Nb control (0=captured, 1=not captured)
BC2T V7R = target: T1, BC2T V7R (human)
T1 construct: position 7 library, row R
T1 peptide: Ac-PDRKAARSHWQQ-NH2
Method in brief: (§1)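 Unbound peptide left in supernatant after 1 h pulldown in PBS/0.01% CHAPS measured by reversed-phase LC-MS (8–30% eluent B gradient, 20 min).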

BC2T D2T = target: T2, BC2T D2T (human)
T2 construct: position 2 library, row T
T2 peptide: Ac-PTRKAAVSHWQQ-NH2
Method in brief: as §1

BC2T P1H = target: T3, BC2T P1H (human)
T3 construct: position 1 library, row H
T3 peptide: Ac-HDRKAAVSHWQQ-NH2
Method in brief: as §1

BC2T K4S = target: T4, BC2T K4S (human)
T4 construct: position 4 library, row S
T4 peptide: Ac-PDRSAAVSHWQQ-NH2
Method in brief: as §1

BC2T A6Y = target: T5, BC2T A6Y (human)
T5 construct: position 6 library (BC2TA6X), row Y
T5 peptide: Ac-PDRKAYVSHWQQ-NH2
Method in brief: as §1

BC2T K4N = target: T6, BC2T K4N (human)
T6 construct: position 4 library, row N
T6 peptide: Ac-PDRNAAVSHWQQ-NH2
Method in brief: as §1

BC2T A6N = target: T7, BC2T A6N (human)
T7 construct: position 6 library (BC2TA6X), row N
T7 peptide: Ac-PDRKANVSHWQQ-NH2
Method in brief: as §1

BC2T A5E = target: T8, BC2T A5E (human)
T8 construct: position 5 library, row E
T8 peptide: Ac-PDRKEAVSHWQQ-NH2
Method in brief: as §1

BC2T P1Y = target: T9, BC2T P1Y (human)
T9 construct: position 1 library, row Y
T9 peptide: Ac-YDRKAAVSHWQQ-NH2
Method in brief: as §1

BC2T V7E = target: T10, BC2T V7E (human)
T10 construct: position 7 library, row E
T10 peptide: Ac-PDRKAAESHWQQ-NH2
Method in brief: as §1

BC2T A6Q = target: T11, BC2T A6Q (human)
T11 construct: position 6 library (BC2TA6X), row Q
T11 peptide: Ac-PDRKAQVSHWQQ-NH2
Method in brief: as §1

BC2T P1K = target: T12, BC2T P1K (human)
T12 construct: position 1 library, row K
T12 peptide: Ac-KDRKAAVSHWQQ-NH2
Method in brief: as §1

BC2T A5Y = target: T13, BC2T A5Y (human)
T13 construct: position 5 library, row Y
T13 peptide: Ac-PDRKYAVSHWQQ-NH2
Method in brief: as §1

BC2T A5R = target: T14, BC2T A5R (human)
T14 construct: position 5 library, row R
T14 peptide: Ac-PDRKRAVSHWQQ-NH2
Method in brief: as §1

BC2T V7S = target: T15, BC2T V7S (human)
T15 construct: position 7 library, row S
T15 peptide: Ac-PDRKAASSHWQQ-NH2
Method in brief: as §1

BC2T A5H = target: T16, BC2T A5H (human)
T16 construct: position 5 library, row H
T16 peptide: Ac-PDRKHAVSHWQQ-NH2
Method in brief: as §1

BC2T D2K = target: T17, BC2T D2K (human)
T17 construct: position 2 library, row K
T17 peptide: Ac-PKRKAAVSHWQQ-NH2
Method in brief: as §1

BC2T A6R = target: T18, BC2T A6R (human)
T18 construct: position 6 library (BC2TA6X), row R
T18 peptide: Ac-PDRKARVSHWQQ-NH2
Method in brief: as §1

BC2T V7H = target: T19, BC2T V7H (human)
T19 construct: position 7 library, row H
T19 peptide: Ac-PDRKAAHSHWQQ-NH2
Method in brief: as §1

BC2T D2E = target: T20, BC2T D2E (human)
T20 construct: position 2 library, row E
T20 peptide: Ac-PERKAAVSHWQQ-NH2
Method in brief: as §1

BC2T V7T = target: T21, BC2T V7T (human)
T21 construct: position 7 library, row T
T21 peptide: Ac-PDRKAATSHWQQ-NH2
Method in brief: as §1

BC2T D2C(Abu) = target: T22, BC2T D2C(Abu) (human, SMILES …)
T22 construct: position 2 library, row C(Abu) / C*
T22 peptide: Ac-P[GABA]RKAAVSHWQQ-NH2
Method in brief: as §1

ratio (BC2T V7R): 0.2
ratio (BC2T D2T): 0.1
ratio (BC2T P1H): 0.3
ratio (BC2T K4S): 0.3
ratio (BC2T A6Y): 1
ratio (BC2T K4N): 0.5
ratio (BC2T A6N): 1
ratio (BC2T A5E): 0.2
ratio (BC2T P1Y): 0.1
ratio (BC2T V7E): 0.4
ratio (BC2T A6Q): 1
ratio (BC2T P1K): 0.3
ratio (BC2T A5Y): 0.1
ratio (BC2T A5R): 0.2
ratio (BC2T V7S): 0.3
ratio (BC2T A5H): 0.2
ratio (BC2T D2K): 0.2
ratio (BC2T A6R): 1.1
ratio (BC2T V7H): 0.3
ratio (BC2T D2E): 0.2
ratio (BC2T V7T): 0.2
ratio (BC2T D2C(Abu)): 0.1
B1: BC2 nanobody (BC2-Nb) (VHH)
VHH: QVQLVESGGGLVQPGGSLTLSCTASGFTLDHYDIGWFRQAPGKEREGVSCINNSDDDTYYADSVKGRFTIFMDNAKDTVYLQMNSLKPEDTAIYYCAEARGCKRGRYEYDFWGQGTQVTVSS
notes: immobilised on agarose/sepharose beads in this assay; also called BC2 nanotrap (immobilised form); not shown: C-terminal 6xHis-tag added by pHEN6 vector

ratio (BC2T V7R): 0.2
ratio (BC2T D2T): 0.2
ratio (BC2T P1H): 0.6
ratio (BC2T K4S): 0.7
ratio (BC2T A6Y): 0.9
ratio (BC2T K4N): 0.9
ratio (BC2T A6N): 1
ratio (BC2T A5E): 0.7
ratio (BC2T P1Y): 0.3
ratio (BC2T V7E): 0.8
ratio (BC2T A6Q): 0.9
ratio (BC2T P1K): 0.5
ratio (BC2T A5Y): 0.2
ratio (BC2T A5R): 0.1
ratio (BC2T V7S): 0.4
ratio (BC2T A5H): 0.3
ratio (BC2T D2K): 0.2
ratio (BC2T A6R): 0.7
ratio (BC2T V7H): 0.4
ratio (BC2T D2E): 0.4
ratio (BC2T V7T): 0.3
ratio (BC2T D2C(Abu)): 0.3
B2: BC2-NbR106S (VHH)
VHH: B1 VHH with R106S
notes: immobilised on beads in this assay; not shown: C-terminal 6xHis-tag added by pHEN6 vector
